Experimental data taken from patent publication US20030224453A1, “Structural models for cytoplasmic domains of transmembrane receptors” (priority 1998, published 2003).

Columns and labels:
filamin (ABP-280) [1] = target: T1, filamin (ABP-280) (Homo sapiens, UniProt P21333); assay: Binding of resin-bound cytoplasmic domain model proteins to purified filamin; parameters: Human uterus filamin (ABP-280) was prepared as a 1.5 mg/ml solution; from tissue; host or cells: human uterus; settings: result in words
Method: (§1) Purified recombinant cytoplasmic domain proteins (500 μg) were dissolved in a mixture of 5 ml 20 mM Pipes, 50 mM NaCl, pH 6.8 and 1 ml 0.1 M sodium acetate, pH 3.5 and bound overnight to 80 μl of Ni^2+ saturated His-bind resin (Novagen). […] Resins were washed twice with 20 mM Pipes, 50 mM NaCl, pH 6.8, and stored at 4° C. with 0.1% sodium azide as suspensions with one volume of this buffer. Fifty microliters of such a suspension were added to 4.5 ml of cell lysates which had been diluted tenfold with buffer A containing 0.05% TRITON X-100, 3 mM MgCl2 and protease-inhibitors. After incubation overnight at 4° C., resins were washed five times with this buffer and finally heated in 50 μl of reducing sample buffer for SDS PAGE. Samples were separated on 4-20% SDS polyacrylamide gels (NOVEX) and either stained with Coomassie or transferred to Immobilon P membranes (Amersham Corp., Arlington Hts, Ill.). Membranes were blocked with TBS, 5% nonfat-mild powder and stained with streptavidin-peroxidase (VECTASTAIN) or specific antibodies. Bound peroxidase was detected with an enhanced chemiluminescence kit (Amersham).
Human uterus filamin (ABP-280) was prepared as a 1.5 mg/ml solution in 0.6 M KCl, 0.5 mM ATP, 0.5 mM DTT, 10 mM imidazole, pH 7.5. For binding assays performed as described in Example 5, this solution was diluted 1/12 with buffer A, 0.05% TRITON X-100, 3 mM MgCl2, 2 mg/ml BSA, protease-inhibitors (see Example 5), omitting the 50 mM NaCl (see Example 5), and resins with bound model proteins were added. Washing was performed in this buffer without BSA and with additional 50 mM KCl.
Talin was purified from human platelets in accordance with well known procedures with an additional purification step using chromatography on phosphocellulose and stored at 1 mg/ml in 10 mM NaCl, 50% glycerol. This solution was diluted to either 87 or 17 μg/ml talin with buffer A, 0.05% TRITON X-100, 3 mM MgCl2, 2 mg/ml BSA and protease inhibitors (see Example 5, including 0.1 mM E-64) and processed as indicated in the binding assays with cell lysates. […]
Target sequence in this assay (P21333 whole entry, the tested form may be a part): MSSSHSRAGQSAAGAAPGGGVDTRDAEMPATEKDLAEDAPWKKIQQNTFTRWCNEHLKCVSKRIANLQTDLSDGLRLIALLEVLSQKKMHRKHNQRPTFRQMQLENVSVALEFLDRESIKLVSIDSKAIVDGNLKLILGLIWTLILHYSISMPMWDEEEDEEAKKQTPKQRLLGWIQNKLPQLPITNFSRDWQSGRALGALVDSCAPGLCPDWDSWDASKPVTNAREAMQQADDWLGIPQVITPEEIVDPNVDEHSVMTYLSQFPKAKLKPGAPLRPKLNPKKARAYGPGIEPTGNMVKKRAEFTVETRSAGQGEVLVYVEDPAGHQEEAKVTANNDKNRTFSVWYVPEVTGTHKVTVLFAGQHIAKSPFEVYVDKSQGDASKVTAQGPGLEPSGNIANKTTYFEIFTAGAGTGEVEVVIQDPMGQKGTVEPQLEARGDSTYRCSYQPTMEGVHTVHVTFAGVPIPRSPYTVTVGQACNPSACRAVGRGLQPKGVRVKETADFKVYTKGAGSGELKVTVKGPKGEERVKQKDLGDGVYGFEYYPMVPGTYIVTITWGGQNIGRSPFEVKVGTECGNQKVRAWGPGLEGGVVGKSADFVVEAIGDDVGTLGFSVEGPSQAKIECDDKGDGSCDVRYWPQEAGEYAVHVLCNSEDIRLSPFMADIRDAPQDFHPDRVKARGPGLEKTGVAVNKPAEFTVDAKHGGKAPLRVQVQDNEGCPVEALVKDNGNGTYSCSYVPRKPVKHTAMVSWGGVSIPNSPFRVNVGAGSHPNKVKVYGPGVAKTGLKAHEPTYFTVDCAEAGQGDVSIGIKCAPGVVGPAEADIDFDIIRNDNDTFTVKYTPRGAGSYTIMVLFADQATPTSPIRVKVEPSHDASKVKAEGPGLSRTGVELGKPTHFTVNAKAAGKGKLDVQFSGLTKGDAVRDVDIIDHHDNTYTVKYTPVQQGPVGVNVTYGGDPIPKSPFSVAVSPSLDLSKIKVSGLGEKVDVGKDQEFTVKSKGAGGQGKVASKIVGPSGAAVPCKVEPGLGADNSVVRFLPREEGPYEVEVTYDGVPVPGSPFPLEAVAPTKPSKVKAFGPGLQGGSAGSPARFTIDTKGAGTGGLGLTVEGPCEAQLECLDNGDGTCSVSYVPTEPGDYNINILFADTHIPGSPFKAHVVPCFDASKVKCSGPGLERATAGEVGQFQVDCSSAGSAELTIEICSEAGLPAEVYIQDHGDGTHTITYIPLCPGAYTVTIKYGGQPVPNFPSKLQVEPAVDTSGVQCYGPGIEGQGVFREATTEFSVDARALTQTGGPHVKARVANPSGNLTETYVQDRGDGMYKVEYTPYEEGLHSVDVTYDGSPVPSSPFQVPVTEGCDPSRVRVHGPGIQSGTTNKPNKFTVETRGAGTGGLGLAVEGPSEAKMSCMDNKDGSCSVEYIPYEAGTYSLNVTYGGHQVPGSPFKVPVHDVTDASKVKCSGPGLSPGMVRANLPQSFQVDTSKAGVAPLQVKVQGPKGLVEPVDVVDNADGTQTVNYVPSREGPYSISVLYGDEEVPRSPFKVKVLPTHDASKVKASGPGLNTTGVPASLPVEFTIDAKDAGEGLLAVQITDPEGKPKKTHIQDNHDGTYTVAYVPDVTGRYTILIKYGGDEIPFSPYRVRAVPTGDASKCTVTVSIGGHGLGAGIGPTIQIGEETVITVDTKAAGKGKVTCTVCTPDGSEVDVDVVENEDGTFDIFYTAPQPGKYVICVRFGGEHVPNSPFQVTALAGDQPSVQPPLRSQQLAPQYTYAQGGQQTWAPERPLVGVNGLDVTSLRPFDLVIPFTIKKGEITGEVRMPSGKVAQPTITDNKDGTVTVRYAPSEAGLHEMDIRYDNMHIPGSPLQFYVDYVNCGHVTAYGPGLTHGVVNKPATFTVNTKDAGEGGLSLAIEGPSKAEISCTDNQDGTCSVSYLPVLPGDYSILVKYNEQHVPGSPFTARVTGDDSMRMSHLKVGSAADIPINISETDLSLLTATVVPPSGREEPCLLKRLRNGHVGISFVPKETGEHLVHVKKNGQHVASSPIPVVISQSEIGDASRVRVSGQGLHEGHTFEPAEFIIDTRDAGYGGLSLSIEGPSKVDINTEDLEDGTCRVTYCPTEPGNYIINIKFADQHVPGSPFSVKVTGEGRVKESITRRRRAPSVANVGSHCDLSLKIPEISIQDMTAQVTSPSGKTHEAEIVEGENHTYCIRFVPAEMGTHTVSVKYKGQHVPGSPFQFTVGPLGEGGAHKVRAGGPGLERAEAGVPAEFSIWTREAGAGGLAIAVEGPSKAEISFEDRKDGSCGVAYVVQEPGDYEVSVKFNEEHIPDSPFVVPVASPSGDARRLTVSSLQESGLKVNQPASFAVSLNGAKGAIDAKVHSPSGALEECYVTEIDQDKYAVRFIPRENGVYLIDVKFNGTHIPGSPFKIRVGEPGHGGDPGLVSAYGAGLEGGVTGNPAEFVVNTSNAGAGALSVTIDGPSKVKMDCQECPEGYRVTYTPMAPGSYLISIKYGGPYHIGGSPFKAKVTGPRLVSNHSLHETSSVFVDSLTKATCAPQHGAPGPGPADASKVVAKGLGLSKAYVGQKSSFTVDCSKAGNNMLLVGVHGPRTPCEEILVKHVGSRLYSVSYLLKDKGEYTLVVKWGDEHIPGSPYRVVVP

talin [2] = target: T2, talin (Homo sapiens, UniProt Q9Y490); assay: Binding of resin-bound cytoplasmic domain model proteins to purified talin; parameters: Talin was purified from human platelets in accordance with well known procedures; from tissue; host or cells: human platelets; settings: result in words
T2 sequence (Q9Y490 whole entry, the tested form may be a part): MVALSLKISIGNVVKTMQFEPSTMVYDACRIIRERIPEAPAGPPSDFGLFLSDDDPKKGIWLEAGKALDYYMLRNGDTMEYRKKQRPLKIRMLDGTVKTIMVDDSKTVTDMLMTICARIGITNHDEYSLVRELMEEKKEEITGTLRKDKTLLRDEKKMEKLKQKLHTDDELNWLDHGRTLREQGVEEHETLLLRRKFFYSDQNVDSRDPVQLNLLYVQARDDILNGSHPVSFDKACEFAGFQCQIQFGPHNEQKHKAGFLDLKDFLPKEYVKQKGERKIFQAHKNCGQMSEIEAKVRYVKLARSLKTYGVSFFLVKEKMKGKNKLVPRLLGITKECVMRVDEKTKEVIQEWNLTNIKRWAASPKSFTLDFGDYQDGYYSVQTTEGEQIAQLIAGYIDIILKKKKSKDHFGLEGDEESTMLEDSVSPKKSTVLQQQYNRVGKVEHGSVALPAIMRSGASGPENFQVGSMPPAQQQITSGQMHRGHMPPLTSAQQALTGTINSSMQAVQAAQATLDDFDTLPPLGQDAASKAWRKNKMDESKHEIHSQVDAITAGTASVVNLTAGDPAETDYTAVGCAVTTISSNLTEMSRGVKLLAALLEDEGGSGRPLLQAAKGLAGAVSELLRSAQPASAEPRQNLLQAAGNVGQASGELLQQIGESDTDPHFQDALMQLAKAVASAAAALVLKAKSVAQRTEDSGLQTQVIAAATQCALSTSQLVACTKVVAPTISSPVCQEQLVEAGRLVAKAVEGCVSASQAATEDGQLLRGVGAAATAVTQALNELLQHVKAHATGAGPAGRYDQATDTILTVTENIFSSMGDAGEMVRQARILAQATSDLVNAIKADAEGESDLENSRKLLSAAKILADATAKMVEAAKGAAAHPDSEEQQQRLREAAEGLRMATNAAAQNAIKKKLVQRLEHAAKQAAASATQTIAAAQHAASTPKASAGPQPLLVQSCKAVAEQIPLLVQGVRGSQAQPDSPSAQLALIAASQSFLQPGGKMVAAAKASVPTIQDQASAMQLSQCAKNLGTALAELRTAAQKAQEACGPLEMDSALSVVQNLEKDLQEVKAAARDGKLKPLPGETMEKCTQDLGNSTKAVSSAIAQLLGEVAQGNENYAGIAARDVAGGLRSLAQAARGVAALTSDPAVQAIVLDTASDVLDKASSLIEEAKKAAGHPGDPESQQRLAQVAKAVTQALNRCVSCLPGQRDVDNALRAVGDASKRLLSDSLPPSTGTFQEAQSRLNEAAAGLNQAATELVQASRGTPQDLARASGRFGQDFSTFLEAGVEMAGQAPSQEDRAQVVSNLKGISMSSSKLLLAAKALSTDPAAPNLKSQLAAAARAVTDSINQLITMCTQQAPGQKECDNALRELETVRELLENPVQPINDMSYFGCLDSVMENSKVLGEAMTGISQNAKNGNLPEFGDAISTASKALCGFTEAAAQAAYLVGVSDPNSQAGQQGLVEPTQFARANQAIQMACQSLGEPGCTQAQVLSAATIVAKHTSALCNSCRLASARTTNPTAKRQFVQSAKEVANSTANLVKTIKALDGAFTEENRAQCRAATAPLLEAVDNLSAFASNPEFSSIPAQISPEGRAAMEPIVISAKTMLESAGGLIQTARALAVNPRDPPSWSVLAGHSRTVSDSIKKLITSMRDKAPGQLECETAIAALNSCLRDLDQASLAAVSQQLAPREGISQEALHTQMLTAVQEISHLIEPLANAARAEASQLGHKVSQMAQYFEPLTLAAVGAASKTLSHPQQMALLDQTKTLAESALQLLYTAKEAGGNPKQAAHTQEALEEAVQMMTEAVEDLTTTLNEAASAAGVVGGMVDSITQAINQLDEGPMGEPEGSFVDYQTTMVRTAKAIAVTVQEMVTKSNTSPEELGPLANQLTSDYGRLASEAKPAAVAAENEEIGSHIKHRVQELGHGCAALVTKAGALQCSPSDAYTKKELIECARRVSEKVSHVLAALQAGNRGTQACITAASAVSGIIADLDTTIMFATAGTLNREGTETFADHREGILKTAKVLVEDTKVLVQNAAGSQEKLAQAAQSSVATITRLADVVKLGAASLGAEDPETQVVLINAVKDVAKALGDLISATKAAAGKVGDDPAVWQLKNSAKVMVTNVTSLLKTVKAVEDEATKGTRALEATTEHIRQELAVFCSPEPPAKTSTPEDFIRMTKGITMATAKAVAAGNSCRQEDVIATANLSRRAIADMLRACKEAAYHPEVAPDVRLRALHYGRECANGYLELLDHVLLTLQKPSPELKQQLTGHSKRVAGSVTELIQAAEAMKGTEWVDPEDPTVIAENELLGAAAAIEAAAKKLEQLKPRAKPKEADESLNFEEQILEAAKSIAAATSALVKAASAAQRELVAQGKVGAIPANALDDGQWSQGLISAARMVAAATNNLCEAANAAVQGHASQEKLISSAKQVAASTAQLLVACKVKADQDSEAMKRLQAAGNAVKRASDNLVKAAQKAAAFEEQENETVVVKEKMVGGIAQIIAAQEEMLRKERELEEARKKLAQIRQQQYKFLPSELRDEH
Method: as §1
Talin was purified from human platelets in accordance with well known procedures with an additional purification step using chromatography on phosphocellulose and stored at 1 mg/ml in 10 mM NaCl, 50% glycerol. […]

filamin (ABP-280) [3] = target: T1, filamin (ABP-280); assay: densitometry of Coomassie-stained gels; purified filamin on model protein resin
talin [4] = target: T2, talin; assay: densitometry of Coomassie-stained gels; purified talin on model protein resin
filamin = assay: Affinity chromatography of cell lysates on cytoplasmic domain mimics, filamin (240 kDa) detected; format: binding; settings: NHS-biotin-labeled human platelet lysates; result in words
Source text: To study possible influences of the structural changes induced by the Gly insertions, protein models were produced having the β1A cytoplasmic domain with one, two and three additional Gly residues inserted after the heptad-repeat motif (G2-, G3-, G4-β1A) and compared with the G1-β1A construct. As an additional control, a variant of the G4-β1A peptide was produced with a Tyr to Ala substitution in the membrane-proximal NPXY-motif (G4-β1A-Y788A) (FIG. 1). This mutation interferes with focal adhesion targeting and activation of integrins. The purified proteins were bound via their N=terminal His-Tag to a Ni^2+−resin and used in affinity chromatography experiments with lysates of NHS-biotin-labeled human platelets. Marked changes in the pattern of protein binding were observed as a consequence of the Gly insertions. Polypeptides migrating at 45, 56, 58, 140 and 240 kDa bound only to the mimics with Gly insertions. […] Using monoclonal antibodies, the 240 kDa and 45 kDa proteins were identified as filamin and actin, respectively. […] Talin bound to the G1- and G4-β1A construct but not to the Y788A-G4β1A construct. Thus, the structural changes in the model induced by the insertion of glycines into the coiled-coil motif and the integrin cytoplasmic domain sequence alter interactions of these proteins with cellular components. […]

talin [5] = target: T2, talin; assay: Affinity chromatography of cell lysates on cytoplasmic domain mimics, talin detected; format: binding; parameters: endogenous in cells; host or cells: human platelets (also Jurkat, HT1080, mouse C2C12 myotubes); settings: NHS-biotin-labeled human platelet lysates; result in words
Source text: To study possible influences of the structural changes induced by the Gly insertions, protein models were produced having the β1A cytoplasmic domain with one, two and three additional Gly residues inserted after the heptad-repeat motif (G2-, G3-, G4-β1A) and compared with the G1-β1A construct. As an additional control, a variant of the G4-β1A peptide was produced with a Tyr to Ala substitution in the membrane-proximal NPXY-motif (G4-β1A-Y788A) (FIG. 1). This mutation interferes with focal adhesion targeting and activation of integrins. The purified proteins were bound via their N=terminal His-Tag to a Ni^2+−resin and used in affinity chromatography experiments with lysates of NHS-biotin-labeled human platelets. Marked changes in the pattern of protein binding were observed as a consequence of the Gly insertions. Polypeptides migrating at 45, 56, 58, 140 and 240 kDa bound only to the mimics with Gly insertions. […] Using monoclonal antibodies, the 240 kDa and 45 kDa proteins were identified as filamin and actin, respectively. […] Talin bound to the G1- and G4-β1A construct but not to the Y788A-G4β1A construct. Thus, the structural changes in the model induced by the insertion of glycines into the coiled-coil motif and the integrin cytoplasmic domain sequence alter interactions of these proteins with cellular components. Alterations of the β1A tail that block cytoskeletal interactions, such as the Y788 mutation and β1B- and β1C-splice variants also abrogate binding to talin and filamin. Consequently, the observed in vitro interactions are likely to be biologically relevant.
Human platelets were obtained by centrifugation of freshly drawn blood samples at 1000 rpm for 20 minutes and sedimentation of the resulting platelet-rich plasma at 2600 rpm for 15 minutes. They were washed twice with 0.12 M NaCl, 0.0129 M trisodium citrate, 0.03 M glucose, pH 6.5, and once in Hepes-Saline (3.8 mM Hepes, 137 mM NaCl, 2.7 mM KCl, 5.6 mM D-Glucose, 3.3 mM Na2HPO4, pH 7.3-7.4). […]

Row | Molecule | binding of purified filamin, comparison between constructs (filamin (ABP-280) [1]) | binding of purified talin compared to G4-β1A (talin [2]) | fold more filamin bound than by the β1A model protein (filamin (ABP-280) [3]) | fold more talin bound than by the β1A model protein (talin [4]) | talin binding from cell lysates (talin [5]) | filamin (240 kDa) binding from cell lysates (filamin)
1 | G4-β1B: G4 model protein with β1B splice variant cytoplasmic domain (protein) GSSHHHHHHSSGLVPRGSHMKLEALEGRLDALEGKLEALEGKLDALEGGGGKLLMIIHDRREFAKFEKEKMNAKWDTVSYKTSKKQSGL | functionally reduced | functionally reduced | – | – | – | –
2 | G4-β1A-Y788A: G4-β1A variant with Tyr to Ala substitution in the membrane-proximal NPXY-motif (protein) GSSHHHHHHSSGLVPRGSHMKLEALEGRLDALEGKLEALEGKLDALEGGGGKLLMIIHDRREFAKFEKEKMNAKWDTGENPIAKSAVTTVVNPKYEGK | functionally reduced | functionally reduced | – | – | not | suppressed the interaction with the 240 kDa

More lines, main results first:

Row | binding of purified filamin, comparison between constructs (filamin (ABP-280) [1]) | binding of purified talin compared to G4-β1A (talin [2]) | fold more filamin bound than by the β1A model protein (filamin (ABP-280) [3]) | fold more talin bound than by the β1A model protein (talin [4]) | talin binding from cell lysates (talin [5]) | Molecule | filamin (240 kDa) binding from cell lysates (filamin)
3 | bound more filamin than G4-β1A or G4-β1D | – | 8.4 fold | – | – | β7 construct (G1 or G4 variant not stated) (designed binder, part only; not given: number of added glycines, part only) chain, part: GSSHHHHHHSSGLVPRGSHMKLEALEGRLDALEGKLEALEGKLDALEGKLSVEIYDRREYSRFEKEQQQLNWKQDSNPLYKSAITTTINPRFQEADSPTL | –
4 | – | – | – | 9 fold | – | β1D construct (G1 or G4 variant not stated) (designed binder, part only; not given: number of added glycines, part only) chain, part: GSSHHHHHHSSGLVPRGSHMKLEALEGRLDALEGKLEALEGKLDALEGKLLMIIHDRREFAKFEKEKMNAKWDTQENPIYKSPINNFKNPNYGRKAGL | –
